# Assay results reported in FireProtDB (doi:10.1006/jmbi.1998.1906).
# Values joined by “and” are separate entries in the source; they are usually repeats but may differ in a detail not shown here. Equal values may be shown once.
# B1: Lysozyme C, P61626 (parent)
# chain: MKALIVLGLVLLSVTVQGKVFERCELARTLKRLGMDGYRGISLANWMCLAKWESGYNTRATNYNAGDRSTDYGIFQINSRYWCNDGKTPGAVNACHLSCSALLQDNIADAVACAKRVVRDPQGIRAWVAWRNRCQNRDVRQYVQGCGV
# Variants of: B1
# Settings: Homo sapiens; pH 2.49; Thermal; DSC; glycine 0.05 M; reversible: yes; structure 1LZ1; whole UniProt chain shown
Variant,Tm [°C],unfolding enthalpy (calorimetric) [kcal/mol],unfolding enthalpy (van 't Hoff) [kcal/mol]
I107V,42.5,66,72

# Same assay, conditions: Homo sapiens; pH 2.66; Thermal; DSC; glycine 0.05 M; reversible: yes; structure 1LZ1; whole UniProt chain shown
Variant,Tm [°C],unfolding enthalpy (calorimetric) [kcal/mol],unfolding enthalpy (van 't Hoff) [kcal/mol]
I107V,45.5,71.8,76.6
I41V,46.7,76.3,80.4

# Same assay, conditions: Homo sapiens; pH 2.7; 49.2 °C; Thermal; DSC; glycine 0.05 M; reversible: yes; structure 1LZ1; whole UniProt chain shown
Variant,ddG of mutation (higher = less stable) [kcal/mol],heat capacity change of unfolding [kcal/mol/K]
I107V,0.35,1.84
V111A,1,1.53
V148A,1.12,1.87
V92A,0.43,1.53
V118A,0.57,1.84
V128A,-0.07,1.51
I41V,0.41,1.82
I77V,0.93,1.67
V139A,1.75,1.37
I74V,1.34,1.29
V20A,1.51,1.44
I124V,0.98,1.72
V143A,1.6,1.56

# Same assay, conditions: Homo sapiens; pH 2.7; Thermal; DSC; glycine 0.05 M; reversible: yes; structure 1LZ1; whole UniProt chain shown
Variant,Tm,"change of melting temperature, mutant - wild type (higher = more stable)",heat capacity change of unfolding [kcal/mol/K],unfolding enthalpy (calorimetric),unfolding enthalpy (van 't Hoff) [kcal/mol]
I107V,46.5 °C,-2.7 °C,1.84,78.5 kcal/mol,
V111A,44.8 °C and 45.2 °C,-4.4 °C and -4 °C,1.53,76.3 kcal/mol and 71.1 kcal/mol,77.3
V148A,44.4 °C,-4.8 °C,1.87,78.2 kcal/mol,
V92A,47.3 °C,-1.9 °C,1.53,73.7 kcal/mol,
V118A,46.6 °C,-2.6 °C,1.84,72.2 kcal/mol,
V117A,44.8 °C,-4.4 °C,1.27,67 kcal/mol,
V128A,49.5 °C,0.3 °C,1.51,80.9 kcal/mol,
I41V,47.6 °C,-1.6 °C,1.82,80.9 kcal/mol,
I77V,44.8 °C,-4.4 °C,1.67,71.3 kcal/mol,
V139A,39.9 °C,-9.3 °C,1.37,65.3 kcal/mol,
I74V,42.9 °C,-6.3 °C,1.29,71.8 kcal/mol,
V20A,41.3 °C,-7.9 °C,1.44,65.5 kcal/mol,
I124V,44.5 °C and 43.6 °C,-4.7 °C and -5.6 °C,1.72,70.3 kcal/mol and 59.8 kcal/mol,66.7
V143A,42.2 °C,-7 °C,1.56,78 kcal/mol,

# Same assay, conditions: Homo sapiens; pH 2.78; Thermal; DSC; glycine 0.05 M; reversible: yes; structure 1LZ1; whole UniProt chain shown
Variant,Tm [°C],unfolding enthalpy (calorimetric) [kcal/mol],unfolding enthalpy (van 't Hoff) [kcal/mol]
I107V,48.4,77.3,82.3
I41V,49.6,83.5,85.9

# Same assay, conditions: Homo sapiens; pH 3.1; Thermal; DSC; glycine 0.05 M; reversible: yes; structure 1LZ1; whole UniProt chain shown
Variant,Tm [°C],unfolding enthalpy (calorimetric) [kcal/mol],unfolding enthalpy (van 't Hoff) [kcal/mol]
I107V,53.8,87.3,88.3
V117A,52.6,70.6,73.7
I77V,52,75.4,78.7
I74V,50.5,74.4,78.2
V20A,48.3,65.1,70.6
I124V,51.3,73.7,78

# Same assay, conditions: Homo sapiens; pH 2.5; Thermal; DSC; glycine 0.05 M; reversible: yes; structure 1LZ1; whole UniProt chain shown
Variant,Tm [°C],unfolding enthalpy (calorimetric) [kcal/mol],unfolding enthalpy (van 't Hoff) [kcal/mol]
V111A,41.2,64.1,71.1
V148A,40.4,61,67.7

# Same assay, conditions: Homo sapiens; pH 3.02; Thermal; DSC; glycine 0.05 M; reversible: yes; structure 1LZ1; whole UniProt chain shown
Variant,Tm [°C],unfolding enthalpy (calorimetric) [kcal/mol],unfolding enthalpy (van 't Hoff) [kcal/mol]
V111A,50.1,77.5,83
V118A,52,77.8,81.6
V117A,51,68.9,72.2
V20A,47.3,62,67.5
V143A,47.9,76.3,78

# Same assay, conditions: Homo sapiens; pH 3.16; Thermal; DSC; glycine 0.05 M; reversible: yes; structure 1LZ1; whole UniProt chain shown
Variant,Tm [°C],unfolding enthalpy (calorimetric) [kcal/mol],unfolding enthalpy (van 't Hoff) [kcal/mol]
V111A,52.5,81.8,86.4
V92A,54.8,82.5,86.4

# Same assay, conditions: Homo sapiens; pH 2.69; Thermal; DSC; glycine 0.05 M; reversible: yes; structure 1LZ1; whole UniProt chain shown
Variant,Tm [°C],unfolding enthalpy (calorimetric) [kcal/mol],unfolding enthalpy (van 't Hoff) [kcal/mol]
V148A,43.8,69.9,73
V92A,47.5,71.5,75.6

# Same assay, conditions: Homo sapiens; pH 2.82; Thermal; DSC; glycine 0.05 M; reversible: yes; structure 1LZ1; whole UniProt chain shown
Variant,Tm [°C],unfolding enthalpy (calorimetric) [kcal/mol],unfolding enthalpy (van 't Hoff) [kcal/mol]
V148A,47,73,79.2

# Same assay, conditions: Homo sapiens; pH 2.97; Thermal; DSC; glycine 0.05 M; reversible: yes; structure 1LZ1; whole UniProt chain shown
Variant,Tm [°C],unfolding enthalpy (calorimetric) [kcal/mol],unfolding enthalpy (van 't Hoff) [kcal/mol]
V148A,49.9,80.1,86.1

# Same assay, conditions: Homo sapiens; pH 3.09; Thermal; DSC; glycine 0.05 M; reversible: yes; structure 1LZ1; whole UniProt chain shown
Variant,Tm [°C],unfolding enthalpy (calorimetric) [kcal/mol],unfolding enthalpy (van 't Hoff) [kcal/mol]
V148A,52.5,84.2,90.2
I41V,55,91.1,95

# Same assay, conditions: Homo sapiens; pH 2.51; Thermal; DSC; glycine 0.05 M; reversible: yes; structure 1LZ1; whole UniProt chain shown
Variant,Tm [°C],unfolding enthalpy (calorimetric) [kcal/mol],unfolding enthalpy (van 't Hoff) [kcal/mol]
V92A,43.9,65.6,69.9
V118A,43.5,61.5,70.1

# Same assay, conditions: Homo sapiens; pH 2.85; Thermal; DSC; glycine 0.05 M; reversible: yes; structure 1LZ1; whole UniProt chain shown
Variant,Tm [°C],unfolding enthalpy (calorimetric) [kcal/mol],unfolding enthalpy (van 't Hoff) [kcal/mol]
V92A,50.1,74.4,80.9
V117A,48.2,67.2,70.6

# Same assay, conditions: Homo sapiens; pH 3.03; Thermal; DSC; glycine 0.05 M; reversible: yes; structure 1LZ1; whole UniProt chain shown
Variant,Tm [°C],unfolding enthalpy (calorimetric) [kcal/mol],unfolding enthalpy (van 't Hoff) [kcal/mol]
V92A,52.8,79.2,86.4

# Same assay, conditions: Homo sapiens; pH 2.72; Thermal; DSC; glycine 0.05 M; reversible: yes; structure 1LZ1; whole UniProt chain shown
Variant,Tm [°C],unfolding enthalpy (calorimetric) [kcal/mol],unfolding enthalpy (van 't Hoff) [kcal/mol]
V118A,46.8,68.9,73.4
V117A,45.3,62.2,65.8
V139A,40.3,53.6,56.9
V143A,42.8,67.2,70.6

# Same assay, conditions: Homo sapiens; pH 2.9; Thermal; DSC; glycine 0.05 M; reversible: yes; structure 1LZ1; whole UniProt chain shown
Variant,Tm [°C],unfolding enthalpy (calorimetric) [kcal/mol],unfolding enthalpy (van 't Hoff) [kcal/mol]
V118A,49.9,72.5,79.2

# Same assay, conditions: Homo sapiens; pH 3.15; Thermal; DSC; glycine 0.05 M; reversible: yes; structure 1LZ1; whole UniProt chain shown
Variant,Tm [°C],unfolding enthalpy (calorimetric) [kcal/mol],unfolding enthalpy (van 't Hoff) [kcal/mol]
V118A,54.4,81.8,84.7

# Same assay, conditions: Homo sapiens; pH 2.54; Thermal; DSC; glycine 0.05 M; reversible: yes; structure 1LZ1; whole UniProt chain shown
Variant,Tm [°C],unfolding enthalpy (calorimetric) [kcal/mol],unfolding enthalpy (van 't Hoff) [kcal/mol]
V117A,41.4,56,59.6

# Same assay, conditions: Homo sapiens; pH 2.55; Thermal; DSC; glycine 0.05 M; reversible: yes; structure 1LZ1; whole UniProt chain shown
Variant,Tm [°C],unfolding enthalpy (calorimetric) [kcal/mol],unfolding enthalpy (van 't Hoff) [kcal/mol]
V128A,46.8,76.8,78

# Same assay, conditions: Homo sapiens; pH 2.87; Thermal; DSC; glycine 0.05 M; reversible: yes; structure 1LZ1; whole UniProt chain shown
Variant,Tm [°C],unfolding enthalpy (calorimetric) [kcal/mol],unfolding enthalpy (van 't Hoff) [kcal/mol]
V128A,52.5,85.9,87.6
V143A,45.9,72.2,76.3

# Same assay, conditions: Homo sapiens; pH 3; Thermal; DSC; glycine 0.05 M; reversible: yes; structure 1LZ1; whole UniProt chain shown
Variant,Tm [°C],unfolding enthalpy (calorimetric) [kcal/mol],unfolding enthalpy (van 't Hoff) [kcal/mol]
V128A,55,89,93.1
I77V,50.3,74.2,76.1
V139A,47,61.5,67.5
I74V,48.2,69.4,73
I124V,49.5,70.6,75.6

# Same assay, conditions: Homo sapiens; pH 3.13; Thermal; DSC; glycine 0.05 M; reversible: yes; structure 1LZ1; whole UniProt chain shown
Variant,Tm [°C],unfolding enthalpy (calorimetric) [kcal/mol],unfolding enthalpy (van 't Hoff) [kcal/mol]
V128A,57.2,93.3,93.3

# Same assay, conditions: Homo sapiens; pH 2.96; Thermal; DSC; glycine 0.05 M; reversible: yes; structure 1LZ1; whole UniProt chain shown
Variant,Tm [°C],unfolding enthalpy (calorimetric) [kcal/mol],unfolding enthalpy (van 't Hoff) [kcal/mol]
I41V,52.3,85.4,89.2

# Same assay, conditions: Homo sapiens; pH 2.68; Thermal; DSC; glycine 0.05 M; reversible: yes; structure 1LZ1; whole UniProt chain shown
Variant,Tm [°C],unfolding enthalpy (calorimetric) [kcal/mol],unfolding enthalpy (van 't Hoff) [kcal/mol]
I77V,44.3,62.9,67

# Same assay, conditions: Homo sapiens; pH 2.81; Thermal; DSC; glycine 0.05 M; reversible: yes; structure 1LZ1; whole UniProt chain shown
Variant,Tm [°C],"change of melting temperature, mutant - wild type (higher = more stable) [°C]",unfolding enthalpy (calorimetric) [kcal/mol],unfolding enthalpy (van 't Hoff) [kcal/mol]
I77V,46.9,-5.1,67.5,71.1

# Same assay, conditions: Homo sapiens; pH 2.86; Thermal; DSC; glycine 0.05 M; reversible: yes; structure 1LZ1; whole UniProt chain shown
Variant,Tm [°C],unfolding enthalpy (calorimetric) [kcal/mol],unfolding enthalpy (van 't Hoff) [kcal/mol]
V139A,43.6,57.9,62.7

# Same assay, conditions: Homo sapiens; pH 3.14; Thermal; DSC; glycine 0.05 M; reversible: yes; structure 1LZ1; whole UniProt chain shown
Variant,Tm [°C],"change of melting temperature, mutant - wild type (higher = more stable) [°C]",unfolding enthalpy (calorimetric) [kcal/mol],unfolding enthalpy (van 't Hoff) [kcal/mol]
V139A,50.1,-7.7,67.2,72.5

# Same assay, conditions: Homo sapiens; pH 2.8; Thermal; DSC; glycine 0.05 M; reversible: yes; structure 1LZ1; whole UniProt chain shown
Variant,Tm [°C],unfolding enthalpy (calorimetric) [kcal/mol],unfolding enthalpy (van 't Hoff) [kcal/mol]
I74V,45.3,66.7,71.1

# Same assay, conditions: Homo sapiens; pH 2.71; Thermal; DSC; glycine 0.05 M; reversible: yes; structure 1LZ1; whole UniProt chain shown
Variant,Tm [°C],unfolding enthalpy (calorimetric) [kcal/mol],unfolding enthalpy (van 't Hoff) [kcal/mol]
V20A,41.4,54.5,60.3

# Same assay, conditions: Homo sapiens; pH 3.17; Thermal; DSC; glycine 0.05 M; reversible: yes; structure 1LZ1; whole UniProt chain shown
Variant,Tm [°C],unfolding enthalpy (calorimetric) [kcal/mol],unfolding enthalpy (van 't Hoff) [kcal/mol]
V143A,50.8,81.1,82.8
